Measured values: patent US20240043515A1 (Chugai, published 2024)
Numbering of substitutions follows the chain as printed. Names and notes keep the numbering of the source. Values belong to the binder of their own block, whether it stands above or below them.

Columns and labels:
[1] = target: hFcγRIIIaV on Jurkat effector cells (human, UniProt P08637 17-254); test: cell-based or functional assay
[2] = target: T1, human FcγRIIa H extracellular domain (human, UniProt P12318 34-217); test: SPR; KD for hFcγRIIb divided by KD for this FcγR
T1 construct: extracellular domain; also called hFcγR IIa H; FcγRIIa allotype H131
T1 sequence (looked up): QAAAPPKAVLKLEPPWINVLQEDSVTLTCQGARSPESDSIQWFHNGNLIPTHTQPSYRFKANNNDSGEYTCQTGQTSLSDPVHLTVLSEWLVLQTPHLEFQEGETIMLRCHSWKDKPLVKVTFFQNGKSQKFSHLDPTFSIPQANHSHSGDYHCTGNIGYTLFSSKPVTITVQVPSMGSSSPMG
Experimental: (§1) The extracellular domains of FcγRs were produced by the method described in WO2014104165. The interaction between the produced antibodies and human FcγRs was analyzed using Biacore 8K+ by the method below. For the running buffer, 50 mM Na-Phosphate, 150 mM NaCl, and 0.05% Tween20 (pH 7.4) was used, and measurement was performed at 25° C. The sensor chip used was a Series S SA chip (GE Healthcare) onto which CaptureSelect Human Fab-kappa Kinetics Biotin Conjugate (Thermo Fisher Scientific) was immobilized. An antibody of interest was captured onto this chip, and each FcγR diluted with the running buffer was allowed to interact with it. The chip was regenerated using 10 mM Glycine-HCl (pH 1.5), and repeatedly used to capture antibodies and perform measurement. The dissociation constants KD (mol/L) of each antibody for FcγRs were calculated using Biacore Insight Evaluation Software, with a steady state affinity model for the dissociation constant for FcγRIIb and a 1:1 Langmuir binding model for the dissociation constants for the other FcγRs (Table 2).

[3] = target: T2, human FcγRIIIa V extracellular domain (human, UniProt P08637 17-208); test: SPR; KD for hFcγRIIb divided by KD for this FcγR
T2 construct: extracellular domain; also called hFcγR IIIa V; FcγRIIIa allotype V158
Experimental: as §1

[4] = target: T3, human FcγRIIIa F extracellular domain (human, UniProt P08637 17-208); test: SPR; KD for hFcγRIIb divided by KD for this FcγR
T3 construct: extracellular domain; also called hFcγR IIIa F; FcγRIIIa allotype F158
Experimental: as §1

[5] = target: T4, human FcγRIIa R extracellular domain (human, UniProt P12318 34-217); test: SPR; KD for hFcγRIIb divided by KD for this FcγR
T4 construct: extracellular domain; also called hFcγR IIa R; FcγRIIa allotype R131
T4 sequence (looked up): T1 sequence (looked up) with H134R
Experimental: as §1

[6] = target: T5, hFcγRIIaH on Jurkat effector cells (human, UniProt P12318 34-317); test: cell-based or functional assay
T5 sequence (looked up): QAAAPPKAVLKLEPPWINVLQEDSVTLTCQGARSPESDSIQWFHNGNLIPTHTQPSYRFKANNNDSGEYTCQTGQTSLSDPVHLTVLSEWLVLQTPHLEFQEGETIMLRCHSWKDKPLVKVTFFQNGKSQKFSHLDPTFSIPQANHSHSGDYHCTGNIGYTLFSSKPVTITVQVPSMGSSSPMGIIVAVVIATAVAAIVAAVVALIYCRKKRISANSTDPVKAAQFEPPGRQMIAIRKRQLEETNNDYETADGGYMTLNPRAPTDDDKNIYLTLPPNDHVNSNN

[7] = target: T1, human FcγRIIa H extracellular domain; test: SPR; KD of G1d divided by KD of this antibody
Experimental: as §1

[8] = target: T2, human FcγRIIIa V extracellular domain; test: SPR; KD of G1d divided by KD of this antibody
Experimental: as §1

[9] = target: T6, human FcγRIa extracellular domain (human, UniProt P12314 16-292); test: SPR; KD of G1d divided by KD of this antibody
T6 construct: extracellular domain; also called hFcγR Ia
Experimental: as §1

[10] = target: T3, human FcγRIIIa F extracellular domain; test: SPR; KD of G1d divided by KD of this antibody
Experimental: as §1

[11] = target: T7, human FcγRIIb extracellular domain (human, UniProt P31994 43-217); test: SPR; KD of G1d divided by KD of this antibody
T7 construct: extracellular domain; also called hFcγR IIb
T7 sequence (looked up): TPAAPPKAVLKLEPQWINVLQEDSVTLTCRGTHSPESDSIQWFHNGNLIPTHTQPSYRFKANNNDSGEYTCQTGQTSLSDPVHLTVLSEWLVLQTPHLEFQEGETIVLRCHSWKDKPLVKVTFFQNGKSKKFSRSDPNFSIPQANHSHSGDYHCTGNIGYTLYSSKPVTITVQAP
Experimental: as §1

[12] = target: T4, human FcγRIIa R extracellular domain; test: SPR; KD of G1d divided by KD of this antibody
Experimental: as §1

T3 sequence (P08637 17-208): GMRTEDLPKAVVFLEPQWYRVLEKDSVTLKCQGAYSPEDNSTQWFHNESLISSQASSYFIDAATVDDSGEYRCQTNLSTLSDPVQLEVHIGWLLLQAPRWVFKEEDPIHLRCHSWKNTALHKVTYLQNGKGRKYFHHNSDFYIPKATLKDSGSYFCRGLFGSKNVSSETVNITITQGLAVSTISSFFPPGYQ
Sequence of hFcγRIIIaV on Jurkat effector cells (P08637 17-254, form in doubt): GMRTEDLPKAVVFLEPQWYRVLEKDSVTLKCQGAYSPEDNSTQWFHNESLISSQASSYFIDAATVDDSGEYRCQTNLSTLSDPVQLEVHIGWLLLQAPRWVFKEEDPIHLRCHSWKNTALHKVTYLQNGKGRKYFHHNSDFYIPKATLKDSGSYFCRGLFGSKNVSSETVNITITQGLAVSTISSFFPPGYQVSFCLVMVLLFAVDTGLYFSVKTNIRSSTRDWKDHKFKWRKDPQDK
T2 sequence (P08637 17-208 F176V): as the sequence (P08637 17-208) above, with F160V counted along it
T6 sequence (P12314 16-292): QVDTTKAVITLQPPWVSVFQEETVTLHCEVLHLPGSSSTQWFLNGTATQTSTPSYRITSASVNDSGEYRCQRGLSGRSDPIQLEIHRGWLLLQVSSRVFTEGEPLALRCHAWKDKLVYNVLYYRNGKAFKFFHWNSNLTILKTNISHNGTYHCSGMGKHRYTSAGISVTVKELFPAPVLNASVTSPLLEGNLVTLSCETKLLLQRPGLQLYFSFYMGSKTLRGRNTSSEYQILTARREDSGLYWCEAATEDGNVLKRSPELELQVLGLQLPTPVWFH

EC50 of reporter gene induction (ADCC Reporter Bioassay, Hepa1-6/hEREG target cells) [1]: 0.000413 µg/mL
A/I ratio (KD for FcγRIIb divided by KD for each FcγR) [2]: 63.3 ratio
A/I ratio (KD for FcγRIIb divided by KD for each FcγR) [3]: 3970 ratio
A/I ratio (KD for FcγRIIb divided by KD for each FcγR) [4]: 694 ratio
A/I ratio (KD for FcγRIIb divided by KD for each FcγR) [5]: 11.5 ratio
EC50 of reporter gene induction (ADCP Reporter Bioassay, Hepa1-6/hEREG target cells) [6]: 0.0367 µg/mL
Relative value to KD between G1d and hFcgRs [7]: 4.9 times
Relative value to KD between G1d and hFcgRs [8]: 97.5 times
Relative value to KD between G1d and hFcgRs [9]: 2.4 times
Relative value to KD between G1d and hFcgRs [10]: 141 times
Relative value to KD between G1d and hFcgRs [11]: 0.7 times
Relative value to KD between G1d and hFcgRs [12]: 1.3 times
B1: EGL-ART11 (H240-Kn496/L73-k0//H240-H1516/L73-k0) (antibody, human IgG1, kappa)
heavy 1: QDQLVQSGAEVKKPGASVKVSCKASGFNIKDTYIQWVRQAPGQGLEWMGRIDPLRKQTKYREKFEGRVTITADTSTNTAYMELSSLRSEDTAVYYCVRSGREFDYWGQGTLVTVSSASTKGPSVFPLAPSSKSTSGGTAALGCLVKDYFPEPVTVSWNSGALTSGVHTFPAVLQSSGLYSLSSVVTVPSSSLGTQTYICNVNHKPSNTKVDKKVEPKSCDKTHTCPPCPAPEFQWGPMVFLFPPKPKDVLMISRTPEVTCVVVDVSDEEPEVKFNWYVDGVEVHNAKTKPREEQYNATYRVVSVLPVLHQDWLNGKEYKCKVSNKALPAPIEKTISKAKGQPREPQVCTLPPSRDELTKNQVSLWCLVKGFYPSDIAVEWESNGQPENNYKTTPPVLDSDGSFFLYSKLTVDKSRWQQGNVFSCSVMHEALHNHYTQKSLSLSP
heavy 2: QDQLVQSGAEVKKPGASVKVSCKASGFNIKDTYIQWVRQAPGQGLEWMGRIDPLRKQTKYREKFEGRVTITADTSTNTAYMELSSLRSEDTAVYYCVRSGREFDYWGQGTLVTVSSASTKGPSVFPLAPSSKSTSGGTAALGCLVKDYFPEPVTVSWNSGALTSGVHTFPAVLQSSGLYSLSSVVTVPSSSLGTQTYICNVNHKPSNTKVDKKVEPKSCDKTHTCPPCPAPELLGGPSVFLFPPKPKDVLMISRTPEVTCVVVDVSHEEPEVKFNWYVDGVEVHNAKTKPREEQYNATYRVVSVLPVLHQDWLNGKEYKCKVSNDALPAPIEETISKAKGQPREPQVYTLPPSRCELTKNQVSLSCAVKGFYPSDIAVEWESNGQPENNYKTTPPVLDSDGSFFLVSKLTVDKSRWQQGNVFSCSVMHEALHNHYTQKSLSLSP
light: DIQMTQSPSSLSASVGDRVTITCRASQDIHKYIAWYQQKPGQAPRLLIQYTSTLQPGVPSRFSGSGSGTDYTFTISSLQPEDIATYYCLQYEQLRTFGGGTKVEIKRTVAAPSVFIFPPSDEQLKSGTASVVCLLNNFYPREAKVQWKVDNALQSGNSQESVTEQDSKDSTYSLSSTLTLSKADYEKHKVYACEVTHQGLSSPVTKSFNRGEC
notes: Kn496: L234F/L235Q/G236W/S239M/T250V/H268D/D270E/S298A/T307P + Y349C/T366W; H1516: T250V/D270E/S298A/T307P/K326D/K334E + D356C/T366S/L368A/Y407V

EC50 of reporter gene induction (ADCC Reporter Bioassay, Hepa1-6/hEREG target cells) [1]: 0.00167 µg/mL
A/I ratio (KD for FcγRIIb divided by KD for each FcγR) [2]: 240 ratio
A/I ratio (KD for FcγRIIb divided by KD for each FcγR) [3]: 2060 ratio
A/I ratio (KD for FcγRIIb divided by KD for each FcγR) [4]: 399 ratio
A/I ratio (KD for FcγRIIb divided by KD for each FcγR) [5]: 49.9 ratio
EC50 of reporter gene induction (ADCP Reporter Bioassay, Hepa1-6/hEREG target cells) [6]: 0.0245 µg/mL
Relative value to KD between G1d and hFcgRs [7]: 33.9 times
Relative value to KD between G1d and hFcgRs [8]: 92.9 times
Relative value to KD between G1d and hFcgRs [9]: 0.5 times
Relative value to KD between G1d and hFcgRs [10]: 148 times
Relative value to KD between G1d and hFcgRs [11]: 1.3 times
Relative value to KD between G1d and hFcgRs [12]: 10.4 times
B2: EGL-ART5 (H240-Kn462/L73-k0//H240-H1441/L73-k0) (antibody, human IgG1, kappa)
heavy 1: B1 heavy 1 with K325D
heavy 2: B1 heavy 2 with G235A
light: B1 light
notes: Kn462: L234F/L235Q/G236W/S239M/T250V/H268D/D270E/S298A/T307P/K326D + Y349C/T366W; H1441: G236A/T250V/D270E/S298A/T307P/K326D/K334E + D356C/T366S/L368A/Y407V

EC50 of reporter gene induction (ADCC Reporter Bioassay, Hepa1-6/hEREG target cells) [1]: 0.000716 µg/mL
A/I ratio (KD for FcγRIIb divided by KD for each FcγR) [2]: 47.4 ratio
A/I ratio (KD for FcγRIIb divided by KD for each FcγR) [3]: 11300 ratio
A/I ratio (KD for FcγRIIb divided by KD for each FcγR) [4]: 4950 ratio
A/I ratio (KD for FcγRIIb divided by KD for each FcγR) [5]: 12.4 ratio
EC50 of reporter gene induction (ADCP Reporter Bioassay, Hepa1-6/hEREG target cells) [6]: 0.0353 µg/mL
Relative value to KD between G1d and hFcgRs [7]: 4.3 times
Relative value to KD between G1d and hFcgRs [8]: 323 times
Relative value to KD between G1d and hFcgRs [9]: 3 times
Relative value to KD between G1d and hFcgRs [10]: 1170 times
Relative value to KD between G1d and hFcgRs [11]: 0.8 times
Relative value to KD between G1d and hFcgRs [12]: 1.6 times
B3: EGL-ART1 (H240-Kn125/L73-k0//H240-H1076/L73-k0) (antibody, human IgG1, kappa)
heavy 1: B1 heavy 1 with F233Y, V249T, P306T
heavy 2: B1 heavy 2 with V249T, A297S, P306T, A329M
light: B1 light
notes: Heterodimeric Fc variant of the anti-human Epiregulin IgG1; Kn125: L234Y/L235Q/G236W/S239M/H268D/D270E/S298A + Y349C/T366W; H1076: D270E/K326D/A330M/K334E + D356C/T366S/L368A/Y407V (EU numbering); also called Kn125/H1076
